Data taken from US20070196374A1 (published 2007).

B1: Y0238-3 (Fab, V domains shown)
VH: EVQLVESGGGLVQPGGSLRLSCAASGYTFTNYGINWVRQAPGKGLEWVGWINTYTGEPTYAADFKRRFTFSLDTSKSTAYLQMNSLRAEDTAVYYCAKYPYYYGTSHWYFDVWGQGTL
VL: DIQLTQSPSSLSASVGDRVTITCRANEQLSNYLNWYQQKPGKAPKVLIYFTSSLHSGVPSRFSGSGSGTDFTLTISSLQPEDFATYYCQQYSTVPWTFGQGTKVEIKR
notes: Soluble Fab from E. coli 34B8
B2: Y0313-1 (Fab, V domains shown)
VH: EVQLVESGGGLVQPGGSLRLSCAASGYDFTHYGMNWVRQAPGKGLEWVGWINTYTGEPTYAADFKRRFTFSLDTSKSTAYLQMNSLRAEDTAVYYCAKYPYYYGTSHWYFDVWGQGTL
VL: DIQLTQSPSSLSASVGDRVTITCRANEQLSNYLNWYQQKPGKAPKVLIYFTSSLHSGVPSRFSGSGSGTDFTLTISSLQPEDFATYYCQQYSTVPWTFGQGTKVEIKR
notes: Y0243-1 with VH3 H101Y and S105T; soluble Fab

Assays:
[1] = target: T1, VEGF (human, UniProt P15692-4 27-191, limits assumed); experiment: BIAcore-2000 SPR
T1 construct: also called vascular endothelial growth factor; biotinylated VEGF
Experimental: (§1) The VEGF-binding affinities of Fab fragments were calculated from association and dissociation rate constants measured using a BIAcore-2000™ surface plasmon resonance system (BIAcore, Inc., Piscataway, N.J.). A biosensor chip was activated for covalent coupling of VEGF using N-ethyl-N′-(3-dimethylaminopropyl)-carbodiimide hydrochloride (EDC) and N-hydroxysuccinimide (NHS) according to the supplier's (BIAcore, Inc., Piscataway, N.J.) instructions. VEGF was buffered exchanged into 20 mM sodium acetate, pH 4.8 and diluted toapproximately 50 μg/mL. An aliquot (35 μL) was injected at a flow rate of 2 μL/min to achieve approximately 700-1400 response units (RU) of coupled protein. Finally, 1 M ethanolamine was injected as a blocking agent.
(§2) For kinetics measurements, two-fold serial dilutions of Fab were injected in PBS/TWEEN™ buffer (0.05% TWEEN 20™ in phosphate buffered saline) at 25° C. at a flow rate of 10 μL/min. […] Equilibrium dissociation constants, Kd's from surface plasmon resonance (SPR) measurements were calculated as koff/kon.

[2] = target: T1, VEGF; experiment: BIAcore-2000 SPR, wt = Y0192
Experimental: as §1, §2

[3] = target: rhVEGF165 (human, UniProt P15692 27-191); experiment: cell-based or functional assay

Row | Binder | Kd [1] [nM] | Kd (wt)/Kd [2] [ratio] | potency in the HuVEC assay relative to the wild-type Fab (Y0192) [3] [fold]
1 | B1 | 0.15 | ≥ 14 | 
2 | B2 |  | ≥ 20 | > 30
